Reference: patent publication US20230226096A1 (Orna Therapeutics, Inc., priority 2020, published 2023)

B1: Rodent pegivirus (nucleic acid, listed as Pegivirus sp.)
DNA: GGACTTCGGTCCCCCTGTTACTCTGCGAGCCACCGCAGAGCCAGGGTTGGTACGCCCGAGGTGTTAGACCCCGGCCGAAAGCTCCTAACCATGGGGTTAGTAGGACGTGGTAAATGCCACTGAGGGGTTGGAGAGCTGGTAGAGCGAGTAAGTCGGCGTAAGGCCCGAGTACGGGCCTCCCAGCCCGGGTCAGCCTAAACCTGGCTGTGATACCCGGTGCATGGAGGGCGTGTCCCAACGCTCGATCGCTGTAGGGTGGGTCCCTGCAGTTGGGTGTGGCTACCCTGCTCGTACTGCTTGATAGAGTCCCGGCGGACGGACCAGCTCTCGTCAGTCCGTGGAGTTGCAC
B2: Hepacivirus B (nucleic acid)
DNA: ACCACAAACACTCCAGTTTGTTACACTCCGCTAGGAATGCTCCTGGAGCACCCCCCCTAGCAGGGCGTGGGGGATTTCCCCTGCCCGTCTGCAGAAGGGTGGAGCCAACCACCTTAGTATGTAGGCGGCGGGACTCATGACGCTCGCGTGATGACAAGCGCCAAGCTTGACTTGGATGGCCCTGATGGGCGTTCATGGGTTCGGTGGTGGTGGCGCTTTAGGCAGCCTCCACGCCCACCACCTCCCAGATAGAGCGGCGGCACTGTAGGGAAGACCGGGGACCGGTCACTACCAAGGACGCAGACCTCTTTTTGAGTATCACGCCTCCGGAAGTAGTTGGGCAAGCCCACCTATATGTGTTGGGATGGTTGGGGTTAGCCATCCATACCGTACTGCCTGATAGGGTCCTTGCGAGGGGATCTGGGAGTCTCGTAGACCGTAGCAC
modifications: Hepacivirus B
B3: Yokose virus (nucleic acid, listed as Yokose virus)
DNA: AGTAAATTTTGCGTGCTAGTCGCTGAGCGTCAGACCGCAAAGTGAGTTTTTAGTGATCTAAAGTGAGGAGTTATTCTTACTGTCATCAAACACTACAAATAAACACGTTGAAATTATTTCCGGAAGAACAACTGTCCGGAATCAAAGACG
B4: Hepacivirus I (nucleic acid)
DNA: CAGGGTTTCGACCCTGGCCCGGATACCTATCGCCTTACGCCGAAAGGTAACGAGTAGGAGTCGGGTCCCCAGGCCCTTACCGCCACCAAGCCAGGTGGGGAGGTATGGGAGCCGGGGGGTGCAGCTGGTAGCTCCATGGGGGACGCCCCGTGAGCGGATGCTGCATCGATACCGGGTTAGCTCTCTGGGAGAGCGGCACTTGACACCACGAATCCGGGAACCGGACAATCGCCGGCGTGGGACGCGTTGCCTCCGTGGCCGAGCAATTTGGCATGCCCGTGGTGAAGAGTGATGGTGGGGGGGGGCCCCCCTTCCAGTACCGTACTGCCTGATAGGGTCTTGCCTCAAGCCCAGAGAGTCGAGGCTGAAAACCGCCATC
modifications: Hepacivirus I
B5: GB virus C/Hepatitis G virus (nucleic acid)
DNA: CCCCCGGCACTGGGTGCAAGCCCCAGAAACCGACGCCTATCTAAGTAGACGCAATGACTCGGCGCCGACTCGGCGACCGGCCAAAAGGTGGTGGATGGGTGATGACAGGGTTGGTAGGTCGTAAATCCCGGTCACCTTGGTAGCCACTATAGGTGGGTCTTAAGAGAAGGTTAAGATTCCTCTTGTGCCTGCGGCGAGACCGCGCACGGTCCACAGGTGTTGGCCCTACCGGTGGGAATAAGGGCCCGACGTCAGGCTCGTCGTTAAACCGAGCCCGTTACCCACCTGGGCAAACGACGCCCACGTACGGTCCACGTCGCCCTTCAATGTCTCTCTTGACCAATAGGCGTAGCCGGCGAGTTGACAAGGACCAGTGGGGGCCGGGGGCTTGGAGAGGGACTCCAAGTCCCGCCCTTCCCGGTGGGCCGGGAAATGC
B6: Theiler's disease-associated virus (nucleic acid)
DNA: TGATACCGTGTCCCGGTACGACCTCGCGCGTCCCCAAGCTCGCCCTGAGGGGGGAGCGTAAGGGCGCGTAGTGGGGTAGCCCCCCAAACCGAGCCACCCTAGTGAGTGACTTTAGAATGGTTAGGGAGACTACCGCCTTCGCTGTTTGGGGACCTAATGATCCGCGTGCCAGGGTTCTTCGGGTAAATCCCGGCGCGGTGTTTTGGGTTCAGGGCAGTAGGGGCAGACGGGCCAGCAGTCGCTGGTTCCTGGTACCACCACCCTATCCGGACGACCTCCCTCACGAAAGGTCGCCACGGTCTGTGGCTCGACGACGCCTATAATTCAGTCCGAGGGGCGCAGCCCTCGTTAAACTTAGGCAAGGTTCCTCGCCATTGATTTGGCCAGGGGTTTAAGTGAACGCCGCCCTTTTAATGTTTAATAGGGTTCTTTCCCGGCGGGTTGACAAACACTTCCCTGGGCTCTTCGTTGGCCTCGGTTCCTTGATGCTTCGGCACCCATGAGCGCACAGGGGGGGGACCCTGCGACAGTCCGCCAAGAGGAAAATCCTTCGGGTGACCTCGTGCGCAACCCAATCCCTTCTTCTTCCACATGGCGTGTCTGTGGTGCATGCTGTG
B7: Zika Virus (nucleic acid, listed as Zika virus)
DNA: AGTTGTTGATCTGTGTGAGTCAGACTGCGACAGTTCGAGTCTGAAGCGAGAGCTAACAACAGTATCAACAGGTTTAATTTGGATTTGGAAACGAGAGTTTCTGGTC
modifications: chemistry not fully specified; the letters are possibly those of the target site
B8: Bussuquara virus (nucleic acid)
DNA: AGTATTTCTTCTGCGTGAGACCATTGCGACAGTTCGTACCGGTGAGTTTTGACTTAACGCAGTGAGAAAAGTTTTCGAGGAAAGACGAGAAGCGAATTCTCTGA
modifications: chemistry not fully specified; the letters are possibly those of the target site
B9: Rosavirus C NFSM6F (nucleic acid)
DNA: CAGGGAGATCTCCATGAATAATCTTTTCCACCCTCTTTAGCGTCTATGCTATTGAGGACGGGTTGGAGCCCCGTTGACCCAGCGTCAGAGTGTGTCGGTAGCAGGCTTTCTGCTCTCGCCCCATGCCGGCCACACCTCCCATTAGTGATGTGAAGGTTGTAAGTTACATGTGAAAAGGTTTCTAATAATTGAGCTGAATGTAGCGATTACCTAAGGTGAGCGGATTCCCCCACGTGGTAACACGTGCCTCTCAGGCCAAAAGCCAAGGTGTTAAAAGCACCCCTTAGGTAGGCCACTACCCCGTGGCCTCAGTTCTCTTAGAAGATTCACTTAGTAGTGTGTGCACTGGCAACTCTTAAGCAGAGCTAGTGAGTGGGCTAAGGATGCCCTGAAGGTACCCGCAGGTAACGTTAAGACACTGTGGATCTGATCAGGGGCTCGAGTGCTGAAGCTTTACAGAGGTAGCTCGAGTTAAAAAACGTCTATGCCCCTCCCCCACGGGAGTGGGGGTTCCCCCACACCAATTTTAGATTGCACT
modifications: Rosavirus C
B10: Equine Pegivirus 1 (nucleic acid, listed as Pegivirus sp.)
DNA: AGAATGGGGAGTTAACTCCTGGCACTGGCCCGAAGCATGAACTGATCGCGGTGGCAGGGTTCTTCGGGTAAATCCCGGCCGCGTGTTGTGATTGTGTTAGGGCAGGTGACAGTCGGCAGGGTCGACCCCCTGCTTCAGGACCACTGTCTTCCTGGACGACCGTTGCTGAAAAAGGGCCGCCACGGTCTGTAGCTCGCCGACGCTTCTAATTCAGGCCGGAGGACCACGCTCCGTAATCGAGCCCAAGTACTCAAACCCCAGCACCCCTGGGTCACGCCCTACGCCGCCCTTTTAACGCTTCGGCTAATAGGGTCTATCCGGCGGGTTGACAAAGGGCGCAGGGTTACCTGGTACTACGAGCTTGGGTGTCCCTGGGAGTAATCCCAGGGTGCC
B11: Rosavirus 2 GA7403 (nucleic acid, listed as Rosavirus sp.)
DNA: CCAGGCATGGCGTTAAACATGCATTCCCTTCCCCTAGTAACCTCCCTTCGCCCCTTCCCCACGTTGTACCCCCTCCGAGATGGCTGCTAAGGCGCTTGCTGCTACAGCAGTCTCGTGTTTCGGGTGTTATAAGTGCTTTCTTTTCCACTCCACTCCCTGCCTATGGGGAGCGGAACGGCCTTGTCTCGGTCGTTGCTTCTTGCAGATCTTCACCCCTCCAGGCTTTCTGGACTCGCCAGGGGTGGAGTAGTAGGCGCACTGTCTAAGTGAAGGTAGCAGTGTTGTTGGCGAAGAGTTGTGGACCTACTTTGAGTTTGTAGCGATCATCCAGAGCTAGCGGATCTCCCCACGCGGTAACGCGTGCCTCTAGGCCCAAAAGGCACGGTGTTCACAGCACCCTTTGGATGGCGGGGGTGCCCCCCTCCGCACTTAAAGTAGAAAAACAGCTTAGTAGTCAAATAACATGGCTTTCCTCAAGCATTCAGTGCTACATGGGACTGAAGGATGCCCAGAAGGTACCCGCAGGCAACGATAAGCTCACTGTGGATCTGATCTGGGGCCCTGGGCCAGGTGCTATACACCTGGTTAAAACCAAATCTGGTAGTCAGGGTTAAAAAACGTCTAAGTCCCACCCCCCCGGGGACGGGGGGTTCCCTTAAACCCTCAACTGACACC
B12: Culex theileri flavivirus (nucleic acid, listed as Flavivirus sp.)
DNA: ATATAAATCCCAGTTTGGTTAAACCTATTTCAAGGCTTAAGTTGTTTATTATTTTATCGCCGCTCGTGACTATAAAGTTGCCTAGCGGAGAGAGATAAAGAAGAAGGAGTTCAAGGCTCAGGGCAGGGCGCAAGTTCCCTGGTCCCTAGGCCGCTCGCAGGAAGGAGGAGTGAAGAAGAAGAAAGAGAAGGAGAGGACCACCGCCGAAAGAAGGCAGGTGCCTCACAAGAGGGCCAACCAGCGTGTTGGACCAGTGGCCAACGCCGGACGGCGTGGTGGCCTGCTGGGACGCCTGGGGATTGGATGGAGTGCCTTCCTACAGGAAGACATCGTTCAAGCCATC
B13: Equine hepacivirus (nucleic acid, listed as Hepacivirus sp.)
DNA: ACCTCCGTGCTATGCACGGTGCGTTGTCAGCGTTTTGCGCTTGCATGCGCTACACGCGTCGTCCAACGCGGAGGGATTCTTCCACATTACCATGTGTCACTCCCCCTATGGAGGGTTCCACCCCGCCCACACGGAAATAGGTTAACCATACCTATAGTACGGGTGAGCGGGTCCTCCTAGGGCCCCCCCGGCAGGTCGAGGGAGCTGAAATTCGTGAATCCGTGAGTACACGGAAATCGCGGCTTGAACGTCATACGTGACCTTCGGAGCCGAAATTTGGGCGTGCCCCACGAAGGAAGGCGGGGGCGGTGTTGGGCCGCCGCCCCCTTTATCCCACGGTCTGATAGGATGCTTGCGAGGGCACCTGCCGGTCTCGTAGACCATAGGAC

These molecules were tested on HEK293 cells. Settings: luminescence from secreted Gluc in supernatant 24 hours after transfection of HEK293 cells; circular RNA encoding Gluc with the named IRES (UTR truncated to 675 nt).
Type: cell-based, human
B1 was tested, and the Expression was 1.79E+05.
For B2, the Expression was 8.84E+04.
For B3, the Expression was 8.55E+04.
Molecule B4 has an Expression of 7.50E+04.
With B5 the Expression was 1.36E+05.
Work on B6 yielded an Expression of 7.84E+04.
In the case of B7, the Expression is reported as 8.61E+04.
Work on B8 yielded an Expression of 8.20E+04.
Molecule B9 has an Expression of 6.84E+05.
With B10 the Expression was 8.80E+04.
In the case of B11, the Expression is reported as 5.05E+06.
In the case of B12, the Expression is reported as 8.52E+04.
For B13, the Expression was 8.40E+04.
